For assay [1], the target named is T1, pol V Mut (UmuD′2C–RecA), wild-type RecA (Escherichia coli, UniProt P0A7G6).
T1 sequence (P0A7G6 2-353): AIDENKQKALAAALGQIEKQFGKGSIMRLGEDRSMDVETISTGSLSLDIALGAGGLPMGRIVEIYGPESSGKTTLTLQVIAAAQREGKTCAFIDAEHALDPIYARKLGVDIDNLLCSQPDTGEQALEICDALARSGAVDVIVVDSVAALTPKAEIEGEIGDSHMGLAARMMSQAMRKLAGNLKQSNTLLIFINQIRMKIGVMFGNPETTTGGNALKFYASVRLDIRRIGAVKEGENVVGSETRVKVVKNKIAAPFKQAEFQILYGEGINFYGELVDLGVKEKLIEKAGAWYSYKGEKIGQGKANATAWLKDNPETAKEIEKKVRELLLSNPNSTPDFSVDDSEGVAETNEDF
T1 sequence (P04152 1-422 partner): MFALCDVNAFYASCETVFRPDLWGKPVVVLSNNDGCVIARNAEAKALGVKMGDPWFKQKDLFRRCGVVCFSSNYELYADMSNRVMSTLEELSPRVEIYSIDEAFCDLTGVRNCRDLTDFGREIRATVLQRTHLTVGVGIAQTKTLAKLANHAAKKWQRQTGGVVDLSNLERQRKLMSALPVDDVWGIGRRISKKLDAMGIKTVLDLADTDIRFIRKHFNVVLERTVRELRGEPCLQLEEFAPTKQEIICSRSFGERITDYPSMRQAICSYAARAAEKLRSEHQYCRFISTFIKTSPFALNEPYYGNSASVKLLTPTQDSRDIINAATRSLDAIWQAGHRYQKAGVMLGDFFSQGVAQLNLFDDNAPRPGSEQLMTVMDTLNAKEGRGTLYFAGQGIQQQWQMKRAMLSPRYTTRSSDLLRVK
T1 sequence (P0AG11 25-139 partner limits assumed): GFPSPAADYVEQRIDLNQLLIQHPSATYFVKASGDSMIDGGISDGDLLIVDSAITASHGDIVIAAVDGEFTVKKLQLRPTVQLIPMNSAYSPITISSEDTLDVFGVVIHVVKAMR
The assay is described as follows: hairpin primer/template extension, […]-labelled DNA. In kind it is biochemical. The settings on record: nucleotide added after activation; RecA* absent; hydrolysis not needed.

The target of assay [2] is T2, DNA polymerase V (UmuD′2C) (E. coli, UniProt P04152 1-422; P0AG11 25-139).
T2 sequence (looked up) 1: T1 sequence (P04152 1-422 partner)
T2 sequence (looked up) 2: T1 sequence (P0AG11 25-139 partner limits assumed)

Another assay has as its target T3, UmuC (E. coli, UniProt P04152 1-422).
T3 sequence (looked up): T1 sequence (P04152 1-422 partner)
The experiment in a line: SEC-MALS. On the technique in general: SEC sorts molecules by how far they enter the pores of the column.

Turning to `Nc1ncnc2c1ncn2[C@@H]1O[C@H](COP(=O)(O)OP(=O)(O)OP(=O)(O)O)[C@@H](O)[C@H]1O` [ATP], in assay [1], the “hairpin primer/template extension, 32P-labelled DNA” value was “pol V Mut activated with wild-type RecA* is inactive in the absence of added ATP or ATPγS”.

B1: wild-type RecA (natural protein, E. coli, UniProt P0A7G6 1-353, looked up)
chain: MAIDENKQKALAAALGQIEKQFGKGSIMRLGEDRSMDVETISTGSLSLDIALGAGGLPMGRIVEIYGPESSGKTTLTLQVIAAAQREGKTCAFIDAEHALDPIYARKLGVDIDNLLCSQPDTGEQALEICDALARSGAVDVIVVDSVAALTPKAEIEGEIGDSHMGLAARMMSQAMRKLAGNLKQSNTLLIFINQIRMKIGVMFGNPETTTGGNALKFYASVRLDIRRIGAVKEGENVVGSETRVKVVKNKIAAPFKQAEFQILYGEGINFYGELVDLGVKEKLIEKAGAWYSYKGEKIGQGKANATAWLKDNPETAKEIEKKVRELLLSNPNSTPDFSVDDSEGVAETNEDF
Turning to B1, in assay [2], the “stoichiometry N” value was determined as 1 RecA per UmuC per UmuD′2.

B2: UmuD′ (natural protein, E. coli, UniProt P0AG11 25-139, looked up)
chain: T1 sequence (P0AG11 25-139 partner limits assumed)
Turning to B2, the binding result in the assay with UmuC was “binds”.

By stoichiometry N is commonly meant the number of molecules, sites or subunits per partner or assembly.

Source of the values: article PMC2731490 (Nature, 2009).
